Data reported in PMC6658013.

Columns and labels:
[1] = molecular target: prefusion-stabilized RSV F variant DS-Cav1 from strain A2, tags removed, Endo H-treated (form used for crystallization) (human respiratory syncytial virus subtype A (strain A2)) (UniProt P03420); experiment: crystal structure
[2] = molecular target: prefusion-stabilized RSV F (DS-Cav1), subtype B (strain B9320), with C-terminal His tag and Strep-ta (human respiratory syncytial virus subtype B (strain B9320)); experiment: SPR
[3] = molecular target: subtype A DS-Cav1 with a K209Q substitution (form used for SPR) (human respiratory syncytial virus subtype A (strain A2)) (UniProt P03420); experiment: SPR
[4] = molecular target: prefusion-stabilized RSV F (DS-Cav1), subtype A (strain A2), with C-terminal His tag and Strep-tag I (human respiratory syncytial virus subtype A (strain A2)) (UniProt P03420); experiment: SPR

Chain of AM22 antigen-binding fragment (Fab) (VH): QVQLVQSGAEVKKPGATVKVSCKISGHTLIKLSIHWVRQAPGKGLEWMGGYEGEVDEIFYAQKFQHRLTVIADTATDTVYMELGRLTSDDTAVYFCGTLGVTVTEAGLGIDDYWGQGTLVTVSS
Chain of AM22 antigen-binding fragment (Fab) (VL): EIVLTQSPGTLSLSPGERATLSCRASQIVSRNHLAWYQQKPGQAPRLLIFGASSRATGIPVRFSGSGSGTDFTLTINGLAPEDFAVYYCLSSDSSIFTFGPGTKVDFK

AM22 antigen-binding fragment (Fab)
stoichiometry N (Fabs per F trimer) [1]: 3 | Kd [2]: 6.1 nM | Kd [3]: 6.7 nM | Kd [4]: 0.12 nM

D25 Fab
Kd [2]: 0.33 nM | Kd [4]: < 0.064 nM
